One substance from patent US20110124572A1, “SYNDECAN-4 IS A REGULATOR OF RAC1-GTP” (priority 2008, published 2011) can be followed below.

For this assay, the target named is p21-binding domain of PAK-1 fused to agarose beads (GST-Pak1-Rac/Cdc42-binding domain), as used in the Rac1 activation kit (UniProt Q13153). Put plainly: PAK-1 p21-binding domain (PAK-PKB) pull-down from cell lysate, blot with anti-syndecan-4 or anti-GFP.
Chain of p21-binding domain of PAK-1 fused to agarose beads (GST-Pak1-Rac/Cdc42-binding domain), as used in the Rac1 activation kit (Q13153 67-150 limits assumed): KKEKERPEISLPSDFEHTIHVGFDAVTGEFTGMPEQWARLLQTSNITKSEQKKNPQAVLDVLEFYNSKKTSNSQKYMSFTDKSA

For the substance “wt-syndecan-4-GFP chimera (human syndecan-4, wild type, GFP inserted at position 131) (from UniProt P31431 19-198)”, the amount of pulled-down syndecan-4 against the Ser179Ala line (% less than Ser179Ala line) stood at 20.
